Measurements: patent publication US20190169310A1 (Amgen, published 2019)
Positions count from the first letter of the chain named. Numbers in names are those of the source.

Assays:
[1] = molecular target: T1, 1-27 CD3-Fc (human); assay: ELISA, periplasmic scFv on captured 1-27 CD3-Fc
T1 construct: assigned to this molecule; also called 1-27 CD3ε-Fc; 27 aa huCD3E

[2] = molecular target: T2, human 1-27 CD3ε-EpCAM (human); assay: FACS, 293-HEK transfectants
T2 construct: also called 1-27 CD3-EpCAM comprising the human 27 mer
T2 chain: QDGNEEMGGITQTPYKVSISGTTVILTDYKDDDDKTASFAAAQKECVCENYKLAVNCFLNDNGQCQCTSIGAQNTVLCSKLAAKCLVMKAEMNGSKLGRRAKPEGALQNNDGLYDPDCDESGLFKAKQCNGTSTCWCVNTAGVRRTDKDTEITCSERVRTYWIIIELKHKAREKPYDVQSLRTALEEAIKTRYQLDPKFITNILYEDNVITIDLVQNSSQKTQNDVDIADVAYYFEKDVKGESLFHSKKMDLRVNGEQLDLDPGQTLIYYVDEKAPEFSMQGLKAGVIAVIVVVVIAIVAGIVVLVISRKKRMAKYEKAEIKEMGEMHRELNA

[3] = molecular target: T3, marmoset 1-27 CD3ε-EpCAM (Callithrix jacchus); assay: FACS, 293-HEK transfectants
T3 construct: also called 1-27 CD3-EpCAM comprising the marmoset 27 mer
T3 chain: T2 chain with G9D, I10T, T13N, I25T

[4] = molecular target: T4, tamarin 1-27 CD3ε-EpCAM (Saguinus oedipus); assay: FACS, 293-HEK transfectants
T4 construct: also called 1-27 CD3-EpCAM comprising the tamarin 27 mer
T4 chain: T2 chain with G9D, I10T, T13N, I25T

[5] = molecular target: T5, squirrel monkey 1-27 CD3ε-EpCAM (Saimiri sciureus); assay: FACS, 293-HEK transfectants
T5 construct: also called 1-27 CD3-EpCAM comprising the squirrel monkey 27 mer
T5 chain: T2 chain with M7I, G9D, I10T, T13N, I25T

[6] = molecular target: T6, swine 1-27 CD3ε-EpCAM (Sus scrofa); assay: FACS, 293-HEK transfectants
T6 construct: negative control; also called 1-27 CD3-EpCAM comprising the swine 27 mer
T6 chain: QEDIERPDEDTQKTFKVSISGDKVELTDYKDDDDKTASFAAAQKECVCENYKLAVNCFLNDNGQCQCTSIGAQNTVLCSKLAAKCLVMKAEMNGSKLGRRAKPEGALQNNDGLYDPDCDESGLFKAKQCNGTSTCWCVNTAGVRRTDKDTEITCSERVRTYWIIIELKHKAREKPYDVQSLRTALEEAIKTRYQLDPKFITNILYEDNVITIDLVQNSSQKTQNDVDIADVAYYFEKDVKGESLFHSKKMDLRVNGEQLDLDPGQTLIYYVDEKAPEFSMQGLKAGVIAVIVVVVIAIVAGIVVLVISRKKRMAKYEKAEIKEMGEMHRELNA

[7] = molecular target: T7, human PSMA (human, UniProt Q04609 1-750); assay: Pepscan ELISA, 15-mer peptides of the extracellular domain of human PSMA
T7 construct: whole, on cells; also called prostate-specific membrane antigen
T7 sequence (Q04609 whole entry, the tested form may be a part): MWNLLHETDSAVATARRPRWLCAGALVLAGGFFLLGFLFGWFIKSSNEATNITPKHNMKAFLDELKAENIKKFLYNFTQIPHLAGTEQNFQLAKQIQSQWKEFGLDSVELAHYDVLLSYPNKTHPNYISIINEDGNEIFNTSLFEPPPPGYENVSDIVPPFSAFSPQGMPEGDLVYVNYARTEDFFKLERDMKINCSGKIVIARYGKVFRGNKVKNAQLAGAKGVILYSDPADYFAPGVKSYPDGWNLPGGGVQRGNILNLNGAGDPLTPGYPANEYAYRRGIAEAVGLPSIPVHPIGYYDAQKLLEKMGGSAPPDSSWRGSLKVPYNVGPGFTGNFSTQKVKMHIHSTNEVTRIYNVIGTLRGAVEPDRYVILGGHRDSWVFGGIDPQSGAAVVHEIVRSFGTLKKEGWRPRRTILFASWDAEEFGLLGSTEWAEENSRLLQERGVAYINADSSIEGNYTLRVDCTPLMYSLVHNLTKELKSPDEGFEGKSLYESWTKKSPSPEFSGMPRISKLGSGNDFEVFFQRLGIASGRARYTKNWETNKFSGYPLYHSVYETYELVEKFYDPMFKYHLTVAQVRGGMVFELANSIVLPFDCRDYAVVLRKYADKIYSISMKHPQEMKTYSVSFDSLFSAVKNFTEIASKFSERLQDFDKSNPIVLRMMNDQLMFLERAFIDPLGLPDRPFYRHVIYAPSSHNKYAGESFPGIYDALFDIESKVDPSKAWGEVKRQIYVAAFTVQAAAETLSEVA

B1: A2J HLP (scFv)
scFv: EVQLLESGGGLVQPGGSLKLSCAASGFTFNVYAMNWVRQAPGKGLEWVARIRSKYNNYATYYADSVKKRFTISRDDSKNTAYLQMNNLKTEDTAVYYCVRHGNFGNSYLSWWAYWGQGTLVTVSSGGGGSGGGGSGGGGSELVVTQEPSLTVSPGGTVTLTCRSSTGAVTSGYYPNWVQQKPGQAPRGLIGATDMRPSGTPARFSGSLLGGKAALTLSGVQPEDEAEYYCALWYSNRWVFGGGTKLTVL
notes: crude periplasmic preparation; also called VH-VL-P of A2J
**Q.** Does B1 bind [1]?
**A.** binds

B2: E2M HLP (scFv)
scFv: B1 scFv with V31G, K68E, G102R, W112F
notes: crude periplasmic preparation; also called VH-VL-P of E2M
**Q.** Does B2 bind [2]?
**A.** binds

**Q.** Does B2 bind [3]?
**A.** binds

**Q.** Does B2 bind [4]?
**A.** binds

**Q.** Does B2 bind [5]?
**A.** binds

**Q.** Does B2 bind [6]?
**A.** no binding

**Q.** Does B2 bind [1]?
**A.** binds

B3: scFv MP 9076-A9 (scFv)
scFv: QVQLVESGGGLVKPGGSLRLSCAASGFTFSDYYMYWVRQAPGKGLEWVAIISDGGYYTYYSDIIKGRFTISRDNAKNNLYLQMNSLRAEDTAVYYCARGFPLLRHGAMDYWGQGTLVTVSSGGGGSGGGGSGGGGSDIQMTQSPSSLSASVGDRVTITCKASQNVDTNVAWYQQKPGQAPKSLIYSASYRYSDVPSRFSGSASGTDFTLTISSVQSEDFATYYCQQYDSYPYTFGGGTKLEIK
notes: crude periplasmic extract from E. coli, His-tagged (His detection); also called PM76A9-HL
**Q.** Does B3 bind [7]?
**A.** binds

B4: scFv MP 9076-B10 (scFv)
scFv: B3 scFv with G16E, N78S, R87K
notes: crude periplasmic extract from E. coli, His-tagged; 610 read as B10; also called MP 9076-610; MP9076-610 (so in the source)
**Q.** Does B4 bind [7]?
**A.** binds

B5: scFv F1-A10 (scFv)
scFv: EVQLLESGGGLVQPGGSLRLSCAASGFTFSDFFMAWVRQAPGRGLEWVSTIVSDGGSTYYRDSVKGRFTISRDNSKNTLYLQMNSLRAEDTAVYYCARRGNSGYYVMDAWGQGTTVTVSSGGGGSGGGGSGGGGSDIQMTQSPSTLSASVGDRVTITCRASSSVTYMHWYQQKPGKAPKLLIYDTSKVASGVPSRFSGSGSGTEFTLTISSLQPDDFATYYCQQWSRNSPYTFGQGTKLEIK
notes: crude periplasmic extract from E. coli, His-tagged; also called PM F1-A10 HL
**Q.** Does B5 bind [7]?
**A.** binds
